Source: patent US9518103B2, “Optogenetic probes for measuring membrane potential” (President and Fellows of Harvard College, priority 2014, dated 2016)
“Also recorded” adds a separate entry of the source.

What was measured:
Type in all cases: cell-based
[1] = tested on: HEK293 cells; assay: Optical crosstalk of blue illumination into QuasAr fluorescence; conditions: continuous 640 nm 300 W/cm^2
Excerpt: FIGS. 5A-5B show the quantification of optical crosstalk of blue illumination into QuasAr fluorescence. Illumination sufficient to induce high-frequency trains of action potentials (488 nm, 140 mW/cm2) perturbed fluorescence of QuasArs by <1%. […] HEK293 cells expressing QuasAr1 or QuasAr2 were exposed to continuous excitation at 640 nm (300 W/cm^2) and pulses of illumination at 488 nm (50 ms, 5 Hz). The intensity of the blue pulses increased from 0.06 to 1.8 W/cm^2. […] Illumination with blue light at typical intensity used to excite a blue-light activator (CheRiff) (0.2 W/cm^2) increased QuasAr1 fluorescence by 1.1% and QuasAr2 fluorescence by 0.6%. Illumination at with blue light at 1 W/cm^2 increased QuasAr1 fluorescence by 3.4% and QuasAr2 fluorescence by 2.4%. Error bars represent s.e.m. for n=5 cells for each QuasAr.

[2] = tested on: cultured rat hippocampal neurons; assay: Photocurrent in cultured rat hippocampal neurons; conditions: for photocurrent (in words): red (640 nm, 300 W/cm^2, tested up to 900 W/cm^2) or blue (488 nm, 500 mW/cm^2) illumination; for photocurrent: red illumination (640 nm, 300 W/cm^2)
Description: FIGS. 4A-4B show the photophysics of QuasArs in mammalian cells. […] Steady state photocurrents were calculated by averaging the current over the last 0.25 seconds of light exposure and subtracting the holding current (cells held at −65 mV) in the dark. These currents hyperpolarized cells by 25±4 mV and 19±3 mV, respectively. […] The double mutants had mutations at the locations of the proton acceptor (Asp95) and proton donor (Asp106) to the Schiff base. QuasAr1 includes mutations D95H, D106H, and QuasAr2 includes mutations D95Q, D106H. The three additional backbone mutations in the QuasArs (P60S, T80S, F161V) increased brightness relative to the double mutants, Fluorescence of each Arch mutant was measured with excitation at 640 nm and emission from 660-760 nm. To control for variation in expression level, fluorescence was normalized by eGFP fluorescence (λexc=488 nm, λem=510−550 nm). Error bars represent s.e.m. for measurements on n=5-10 cells.
Measurements were performed on primary cultures at 13-15 DIV. Experiments were conducted in Tyrode's solution containing 125 mM NaCl, 2.5 mM KCl, 3 mM CaCl2, 1 mM MgCl2, 10 mM HEPES, 30 mM glucose (pH 7.3) and adjusted to 305-310 mOsm with sucrose. Prior to imaging, neurons were incubated with 5 μM all-trans retinal for 30 minutes and then washed with Tyrode's solution.
Synaptic blockers were added to the imaging medium for measurements of single-cell electrophysiology (Arch photocurrents, and single-cell excitability). The blockers comprised NBQX (10 μM, Tocris), D(−)-2-amino-5-phosphonovaleric acid (APS; […]), and gabazine (SR-95531, 20 μM, Tocris). For measurements of channel rhodopsin photocurrents in neurons, TTX (1 μM, Tocris) was included along with the synaptic blockers to prevent recruitment of voltage gated sodium channels. […] Recordings were terminated if membrane resistance changed by >10%. Experiments were performed at 23° C. under ambient atmosphere unless otherwise noted.

[3] = tested on: cultured rat hippocampal neurons; assay: Single-trial detection of neuronal action potentials with eFRET GEVIs; conditions: 3 W/cm^2 illumination, exposure times compatible with single action potentials
Excerpt: We further characterized the most sensitive eFRET voltage sensors via transient transfection in cultured rat hippocampal neurons. […] Injection of current pulses via a patch pipette (500-600 pA, 5-10 ms, 5 Hz) induced trains of action potentials, which induced downward fluorescence transients of 12% (YFP), 12% (mOrange2), 7% (mRuby2).
The signal-to-noise ratio (SNR) of fluorescence detection, defined as the ratio of the peak amplitude to standard deviation of fluorescence at the baseline, was 6.6 (YFP), 11.6 (mOrange2), and 10.5 (mRuby2). In all cases images were acquired at 1 kHz with 3 W/cm^2 illumination intensity. Previous measurements with QuasAr2 reported an SNR of 30-70 at the same bandwidth but with 800 W/cm^2 illumination.

| Molecule | increase of fluorescence by blue light ([1]; 488 nm 0.2 W/cm^2) [%] | increase of fluorescence by blue light ([1]; 488 nm 1 W/cm^2) [%] | photocurrent (in words) [2] | photocurrent [2] [pA] | direct fluorescence [3] |
| --- | --- | --- | --- | --- | --- |
| QuasAr1: Archaerhodopsin 3 variant with mutations P60S, T80S, D95H, D106H, F161V; genetically encoded voltage indicator (protein) MDPIALQAGYDLLGDGRPETLWLGIGTLLMLIGTFYFLVRGWGVTDKDAREYYAVTILVSGIASAAYLSMFFGIGLTEVSVGGEMLDIYYARYAHWLFTTPLLLLHLALLAKVDRVTIGTLVGVDALMIVTGLIGALSHTAIARYSWWLFSTICMIVVLYVLATSLRSAAKERGPEVASTFNTLTALVLVLWTAYPILWIIGTEGAGVVGLGIETLLFMVLDVTAKVGFGFILLRSRAILGDTEAPEPSAGADVSAAD | 1.1 | 3.4 | Neither QuasAr1 nor QuasAr2 generated detectable photocurrent; also recorded: Neither QuasAr1 (n=9 cells) nor QuasAr2 (n=7 cells) generated detectable photocurrents | 0 |  |
| QuasAr2: Archaerhodopsin 3 variant with mutations P60S, T80S, D95Q, D106H, F161V; genetically encoded voltage indicator (protein) MDPIALQAGYDLLGDGRPETLWLGIGTLLMLIGTFYFLVRGWGVTDKDAREYYAVTILVSGIASAAYLSMFFGIGLTEVSVGGEMLDIYYARYAQWLFTTPLLLLHLALLAKVDRVTIGTLVGVDALMIVTGLIGALSHTAIARYSWWLFSTICMIVVLYVLATSLRSAAKERGPEVASTFNTLTALVLVLWTAYPILWIIGTEGAGVVGLGIETLLFMVLDVTAKVGFGFILLRSRAILGDTEAPEPSAGADVSAAD | 0.6 | 2.4 | Neither QuasAr1 nor QuasAr2 generated detectable photocurrent; also recorded: Neither QuasAr1 (n=9 cells) nor QuasAr2 (n=7 cells) generated detectable photocurrents | 0 | not detectable |
